Biological target: platelet glycoprotein (GP) IIb/IIIa on platelets of mouse platelet rich plasma (mouse) (UniProt Q9QUM0)
Test: cell-based or functional assay

Sequence of platelet glycoprotein (GP) IIb/IIIa on platelets of mouse platelet rich plasma (mouse) (Q9QUM0 32-1033, chain 1 of 2): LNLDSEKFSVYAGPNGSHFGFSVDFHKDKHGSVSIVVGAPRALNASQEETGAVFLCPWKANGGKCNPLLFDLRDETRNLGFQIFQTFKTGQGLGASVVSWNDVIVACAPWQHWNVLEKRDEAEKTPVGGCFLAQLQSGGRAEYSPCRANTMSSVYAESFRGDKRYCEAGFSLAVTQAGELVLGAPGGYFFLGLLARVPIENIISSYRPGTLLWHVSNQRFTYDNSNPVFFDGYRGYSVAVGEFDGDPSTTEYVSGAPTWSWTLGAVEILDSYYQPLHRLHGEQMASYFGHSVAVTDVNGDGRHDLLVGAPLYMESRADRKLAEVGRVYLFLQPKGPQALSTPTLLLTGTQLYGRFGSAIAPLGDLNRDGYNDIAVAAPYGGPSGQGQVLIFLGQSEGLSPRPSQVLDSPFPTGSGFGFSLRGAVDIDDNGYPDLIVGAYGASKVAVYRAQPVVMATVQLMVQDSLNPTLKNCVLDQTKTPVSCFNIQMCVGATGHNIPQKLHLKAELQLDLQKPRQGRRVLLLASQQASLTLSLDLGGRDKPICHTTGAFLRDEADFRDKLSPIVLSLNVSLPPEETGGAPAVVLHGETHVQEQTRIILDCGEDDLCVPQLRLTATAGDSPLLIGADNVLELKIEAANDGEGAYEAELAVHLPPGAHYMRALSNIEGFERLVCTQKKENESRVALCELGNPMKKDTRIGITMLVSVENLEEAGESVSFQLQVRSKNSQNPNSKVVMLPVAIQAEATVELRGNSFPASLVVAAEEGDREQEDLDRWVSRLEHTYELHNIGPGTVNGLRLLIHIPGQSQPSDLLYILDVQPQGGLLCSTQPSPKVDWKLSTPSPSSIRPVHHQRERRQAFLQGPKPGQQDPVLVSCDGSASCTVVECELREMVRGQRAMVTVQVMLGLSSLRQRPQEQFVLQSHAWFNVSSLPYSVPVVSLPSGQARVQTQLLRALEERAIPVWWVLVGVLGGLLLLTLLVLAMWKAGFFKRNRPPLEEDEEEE
Sequence of platelet glycoprotein (GP) IIb/IIIa on platelets of mouse platelet rich plasma (mouse) (O54890 26-787, chain 2 of 2, further chain): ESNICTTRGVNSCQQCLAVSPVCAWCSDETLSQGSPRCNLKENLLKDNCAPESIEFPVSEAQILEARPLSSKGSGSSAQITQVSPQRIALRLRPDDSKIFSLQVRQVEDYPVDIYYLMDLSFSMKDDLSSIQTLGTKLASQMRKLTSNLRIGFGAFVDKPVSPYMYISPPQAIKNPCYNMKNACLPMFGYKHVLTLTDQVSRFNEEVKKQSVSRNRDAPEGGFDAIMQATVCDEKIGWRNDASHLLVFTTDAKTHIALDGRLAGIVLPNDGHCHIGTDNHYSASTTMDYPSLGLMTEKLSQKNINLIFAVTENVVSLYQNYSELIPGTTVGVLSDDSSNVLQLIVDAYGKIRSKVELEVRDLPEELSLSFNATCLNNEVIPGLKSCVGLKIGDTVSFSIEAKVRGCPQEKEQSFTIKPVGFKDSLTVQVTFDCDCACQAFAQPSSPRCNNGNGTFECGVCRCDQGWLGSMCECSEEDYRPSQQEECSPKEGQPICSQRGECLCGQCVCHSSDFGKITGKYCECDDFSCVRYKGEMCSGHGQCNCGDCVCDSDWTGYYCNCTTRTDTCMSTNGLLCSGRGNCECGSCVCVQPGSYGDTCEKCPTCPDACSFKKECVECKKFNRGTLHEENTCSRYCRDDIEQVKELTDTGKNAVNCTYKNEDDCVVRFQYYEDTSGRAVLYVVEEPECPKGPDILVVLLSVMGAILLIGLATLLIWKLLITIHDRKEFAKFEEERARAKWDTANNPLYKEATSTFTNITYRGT

Question: How did the IC50 of inhibition of ADP-induced platelet aggregation, mouse PRP, aggregometer turn out when “recombinant saxatilin (from UniProt Q9DGH6 1-73) (ligand)” was run?
Answer: 176 nM

Question: What about the treatment concentration giving a similar level of platelet aggregation inhibition of the same substance?
Answer: 0.7 µM

Source: patent US20130316951A1
